# The supplement of paper PMC12042874
# ± gives the uncertainty stated by the source.
# Experiment: amyloid nucleation score (Sup35N fusion, yeast selection) (log enrichment); library NNK2; higher = more nucleation; inactive = no reads after selection
# Summary of the method: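 Nucleation score: DiMSum log enrichment of output over input reads, centred on the mode score of non-aggregating sequences. Only sequences with at least 100 input reads were kept. Reads came from Illumina sequencing of plasmid inserts before and after 7 days of growth at 30°C without adenine and uracil, in psi-negative yeast expressing Sup35N fused to peptides of 20 random codons after 24 hours of induction with 100 μM copper sulfate.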
row,Substance,amyloid nucleation score
1,RDWQYRIYVQCNR,2.17 ± 0.14
2,SCFLNMTLILDLVITGMMPR,-0.251 ± 0.32
3,TNHYSSVRS,-0.195 ± 0.54
4,VLKKA,0.185 ± 0.8
5,SLFQCNGSCVIYSYGILLYL,7.71 ± 0.082
6,LNCYFGHRDPIFSRMNICDY,-0.469 ± 1.1
7,RLIGLVSRVEHVYIAVKRWE,0.543 ± 0.34
8,WLKYMSCSLAKSQVSACVSV,0.219 ± 0.46
9,CSESFGCRTPPSLNMLVCN,-0.729 ± 1.1
10,PEFLNKMQTTIYDKDCYMDR,inactive
11,MKNTVE,-0.803 ± 1
12,IFYHHLSWTEFRCGRTFLSV,0.196 ± 0.42
13,AAFLAVSGFCNLPGGSTHIL,2.38 ± 0.079
14,RGVDYVLSCL,-1.21 ± 0.61
15,SNFVQSGG,0.138 ± 0.46
16,VPNFRS,4.16 ± 0.037
17,FSRVESEIHSHWPW,5.639 ± 0.041
18,RGMTRVVFTVMLLRLWYSQS,0.659 ± 0.21
19,PGVPP,-1.06 ± 1.1
20,IEGDLFVRLRLRKLSQLFKA,0.196 ± 0.77
21,PTMEPVVHITLDCVYKDF,inactive
22,GACGVSEVMHRVVFRGRLKR,0.4 ± 0.39

row,Substance,amyloid nucleation score
1,VSYPVCMGKWHGSTRILNRH,0.669 ± 0.27
2,LSFLKVW,-0.654 ± 0.36
3,FSFYLTQSKSALIIDVAQRI,-0.231 ± 0.49
4,LSHEFMIEW,-0.19 ± 0.62
5,GVCVI,0.775 ± 0.4
6,MCGSDNYILGLFWVYFMTNF,inactive
7,VNRIASKWVYLLMNEFYSI,-1.21 ± 0.61
8,INCFSLLEPLEYFSRLCQQR,-0.276 ± 0.55
9,SASWGLQSYNSRCGRLTNRF,0.524 ± 0.81
10,SGESSNCWLMIL,inactive
11,FRMVSKPMLYNIMRFTSMLV,0.057 ± 1.1
12,ESIRAGLRRSRLWNRGFGES,0.738 ± 0.27
13,WLLKFSVGLNFFSEFNVLRC,-1.43 ± 0.75
14,LSDAMILNLRAIFSSISLLQ,-0.86 ± 0.78
15,RVFMEH,-0.047 ± 1.1
16,PWVNRCKELCMFVLGVDRGG,-0.588 ± 1.1
17,IDSILICIMHDCIYIEYLRN,4.44 ± 0.094
18,GCYLVNDASPVSHLVFLPM,inactive
19,GMLEGCRHHGIGWKGYACGQ,2.94 ± 0.087
20,SGNHSLVLYDWDYVWYVTQY,-1.1 ± 0.45
21,PFVTFATVFLLKPMVFAKQC,1.23 ± 0.38
22,WFYNVATYTHVAANTRVMKC,0.231 ± 0.44

row,Substance,amyloid nucleation score
1,QKGHSRLQPWSLSPYVYRPL,0.556 ± 0.42
2,GYKHLIRVQWSKTYSSTGFC,-0.356 ± 1.1
3,TSVYFHFGFPPWVGVPRRLT,3.17 ± 0.077
4,DKCDMTSTIVSLLVSTPKWS,-0.142 ± 0.34
5,EVMCMSRYDPR,-0.557 ± 1.1
6,SNYVFTNRGLIFRDFRVSDE,5.56 ± 0.086
7,VLKVRHVFEGGTEVILQSNR,2.22 ± 0.2
8,LGLCEVNMFNIRHFTLRSCY,0.219 ± 1
9,IYLCTDSLSYRSFVRGN,1.18 ± 0.17
10,QYMLLMMC,0.671 ± 0.6
11,CLGTWPNLLGSISTMYAD,0.854 ± 0.53
12,SDTSVRGLLLEVCRWSGWVA,1.33 ± 0.35
13,LAVVTCHCSSTCCSYLLNVG,3.38 ± 0.06
14,YVNMAVNLTTDGQMTWNSRT,6.65 ± 0.035
15,LMALTPIVVVYIMGSMDLST,-0.436 ± 1.1
16,LRYRVMT,1.23 ± 0.52
17,GCSLVKAYCSVL,0.325 ± 0.6
18,VMGYGKRLMSHLGMKSRTRL,0.468 ± 0.29
19,TRIRWWF,4.21 ± 0.067
20,NHAQMDMKTHVINRLCKE,0.605 ± 0.57
21,CFTCHTIYCVYSKFKRDMDR,3.56 ± 0.047
22,VLWCGDLFAYLYMYVFSSNS,7.516 ± 0.051

row,Substance,amyloid nucleation score
1,GKFLCDV,0.775 ± 0.31
2,SSRTMRFNVRG,0.722 ± 0.26
3,IANRGNAKHVRWICMMHHRS,0.479 ± 0.41
4,FNRLA,-0.603 ± 1.1
5,QSIRFVFLPYELGTYHGDEG,-0.241 ± 0.24
6,RRALIWIAIHECIRTTPHLL,-0.434 ± 0.76
7,TQSWVAISLVRHRSWGSWLG,3.57 ± 0.07
8,YYGNFHLMSWVWSIGPCSIY,4.88 ± 0.11
9,DKIRTSKAISQIWLLPIYFE,0.491 ± 0.57
10,TGDSYLYRWVSARFGHRLRS,-0.314 ± 0.27
11,CIYMSRSRRKCGCSLGTRYV,-0.393 ± 1
12,RRPCLS,-1.09 ± 0.63
13,EARVSRLFT,0.542 ± 0.18
14,CTTYPAFLSSGNPNFIMRFL,-0.148 ± 0.51
15,VGDRSFVMFSIFESAGSCCT,1.03 ± 0.25
16,CFGRMVTSNSSDLRYSNDRL,1.56 ± 0.097
17,NFRPCRVLRFGY,1.03 ± 0.66
18,SDLVLKSLFDVVARRL,-0.072 ± 0.35
19,ILAVRQV,0.054 ± 0.79
